This note sets out measurements from PMC9972587, “SIRT2-PFKP interaction dysregulates phagocytosis in macrophages with acute ethanol-exposure” (Frontiers in Immunology, 2022).

The target of this assay is T1, Human recombinant PFKP protein (His and GST tag) (human, UniProt Q01813 1-784).
T1 construct: Phosphofructokinase, platelet isoform (PFKP), human, recombinant; also called human PFKP protein; source: bought: Sino Biological (CAT# 15003-H20B)
T1 sequence (looked up): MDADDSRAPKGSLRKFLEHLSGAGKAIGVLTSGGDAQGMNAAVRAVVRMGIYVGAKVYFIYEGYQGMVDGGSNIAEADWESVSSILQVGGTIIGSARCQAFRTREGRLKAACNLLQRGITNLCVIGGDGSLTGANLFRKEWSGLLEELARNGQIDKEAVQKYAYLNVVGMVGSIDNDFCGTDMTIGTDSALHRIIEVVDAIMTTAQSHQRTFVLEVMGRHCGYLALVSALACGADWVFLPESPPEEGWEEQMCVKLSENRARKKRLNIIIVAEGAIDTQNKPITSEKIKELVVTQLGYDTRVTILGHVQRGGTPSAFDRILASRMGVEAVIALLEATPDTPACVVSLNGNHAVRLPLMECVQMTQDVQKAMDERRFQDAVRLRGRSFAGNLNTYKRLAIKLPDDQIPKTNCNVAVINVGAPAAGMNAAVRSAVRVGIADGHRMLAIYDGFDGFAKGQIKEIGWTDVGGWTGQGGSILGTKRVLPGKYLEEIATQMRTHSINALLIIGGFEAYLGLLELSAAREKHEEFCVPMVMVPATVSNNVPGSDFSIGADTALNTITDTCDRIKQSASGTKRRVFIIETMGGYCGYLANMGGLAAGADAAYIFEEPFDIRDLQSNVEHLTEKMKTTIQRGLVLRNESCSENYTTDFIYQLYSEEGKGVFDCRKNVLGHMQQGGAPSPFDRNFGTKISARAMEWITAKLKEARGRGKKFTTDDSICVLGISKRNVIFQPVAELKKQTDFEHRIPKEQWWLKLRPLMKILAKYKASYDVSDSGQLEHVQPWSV
The assay can be described thus: SPR; Biacore S200; human SIRT2 immobilised on CM5 chip by amine coupling (10 mM sodium acetate pH 4.0 with 20 uM NAD+); PFKP injected at 15.62-1000 nM, contact time 120 s, 15 uL/minute; running buffer HBS-P+ pH 7.4; steady state equilibrium binding model. Particulars: both partners purified. On the technique in general: In SPR one partner is held on a chip, and binding of the other changes the refractive index at the surface.

The Kd is the free concentration of one partner at which half of the binding sites on the other are occupied at equilibrium, for simple one-to-one binding.

B1: Recombinant human SIRT2 protein (enzyme, UniProt Q8IXJ6 1-389, looked up)
chain: MAEPDPSHPLETQAGKVQEAQDSDSDSEGGAAGGEADMDFLRNLFSQTLSLGSQKERLLDELTLEGVARYMQSERCRRVICLVGAGISTSAGIPDFRSPSTGLYDNLEKYHLPYPEAIFEISYFKKHPEPFFALAKELYPGQFKPTICHYFMRLLKDKGLLLRCYTQNIDTLERIAGLEQEDLVEAHGTFYTSHCVSASCRHEYPLSWMKEKIFSEVTPKCEDCQSLVKPDIVFFGESLPARFFSCMQSDFLKVDLLLVMGTSLQVQPFASLISKAPLSTPRLLINKEKAGQSDPFLGMIMGLGGGMDFDSKKAYRDVAWLGECDQGCLALAELLGWKKELEDLVRREHASIDAQSGAGVPNPSTSASPKKSPPPAKDEARTTEREKPQ
notes: Sirtuin 2 (SIRT2), human, recombinant; also called human SIRT2 ligand; source: bought: Sigma-Aldrich (CAT# SRP0116)
Consider B1, for which the dissociation constant Kd stood at 100 nM.
